Experimental data: PMC3670212 (Cell, 2013)

What was measured:
[1] = target: the molecule itself; assay: negative-stain electron microscopy
[2] = target: E. coli DnaB replicative helicase (E. coli, UniProt P0ACB0 1-471); assay: negative-stain electron microscopy
Chain of E. coli DnaB replicative helicase (P0ACB0 whole entry): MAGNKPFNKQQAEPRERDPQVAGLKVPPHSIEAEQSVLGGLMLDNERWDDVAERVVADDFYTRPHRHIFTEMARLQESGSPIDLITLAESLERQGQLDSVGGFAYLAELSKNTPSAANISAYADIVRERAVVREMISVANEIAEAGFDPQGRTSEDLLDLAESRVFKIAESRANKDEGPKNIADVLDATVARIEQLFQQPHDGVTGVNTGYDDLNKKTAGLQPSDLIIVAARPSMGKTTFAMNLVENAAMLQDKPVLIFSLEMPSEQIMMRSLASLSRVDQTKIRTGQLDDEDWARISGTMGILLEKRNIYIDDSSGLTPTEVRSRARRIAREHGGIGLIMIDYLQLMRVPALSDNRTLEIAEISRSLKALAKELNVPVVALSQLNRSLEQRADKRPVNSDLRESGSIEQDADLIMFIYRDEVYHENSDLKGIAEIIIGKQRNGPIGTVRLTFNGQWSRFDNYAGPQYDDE

B1: E. coli DnaC helicase loader (natural protein, UniProt P0AEF0 1-245, looked up)
chain: MKNVGDLMQRLQKMMPAHIKPAFKTGEELLAWQKEQGAIRSAALERENRAMKMQRTFNRSGIRPLHQNCSFENYRVECEGQMNALSKARQYVEEFDGNIASFIFSGKPGTGKNHLAAAICNELLLRGKSVLIITVADIMSAMKDTFRNSGTSEEQLLNDLSNVDLLVIDEIGVQTESKYEKVIINQIVDRRSSSKRPTGMLTNSNMEEMTKLLGERVMDRMRLGNSLWVIFNWDSYRSRVTGKEY
B1 was tested, and the “stoichiometry N” value [1] was 6 and the “stoichiometry N” value [2] was 6 DnaC subunits per DnaB hexamer.
